Test results taken from patent US6518061.
pIC50, pKd: −log10 of the molar value.

Key:
[1] = target: IL-13 receptor (IL-13R) on human tumor cells (human); experiment: cell-based or functional assay
[2] = target: IL-13 receptor (IL-13R) on human tumor cells (human); experiment: displacement of ^125I-IL-13 from WS-RCC and HL-RCC cells by excess unlabeled IL-13
[3] = target: IL-13 receptor (IL-13R) on human tumor cells (human); experiment: radioligand (0.64 nM) binding to PM-RCC cells, 4 C, 2 h
[4] = target: IL-13 receptor (IL-13R) on human tumor cells (human); experiment: ^125I-hIL-13 displacement by unlabeled hIL-13 on SNB-19 glioma cells, LIGAND/Scatchard analysis
[5] = target: IL-13 receptor (IL-13R) on human tumor cells (human); experiment: ^125I-IL-13 displacement by unlabeled IL-13 on HL-RCC cells, LIGAND/Scatchard analysis
[6] = target: IL-13 receptor (IL-13R) on human tumor cells (human); experiment: ^125I-hIL-13 displacement by unlabeled hIL-13 on U-373 MG glioma cells, LIGAND/Scatchard analysis
[7] = target: IL-13 receptor (IL-13R) on human tumor cells (human); experiment: ^125I-hIL-13 displacement by unlabeled hIL-13 on A-172 glioma cells, LIGAND/Scatchard analysis
[8] = target: IL-13 receptor (IL-13R) on human tumor cells (human); experiment: ^125I-IL-13 displacement by unlabeled IL-13 on MA-RCC cells, LIGAND/Scatchard analysis
[9] = target: IL-13 receptor (IL-13R) on human tumor cells (human); experiment: ^125I-hIL-13 displacement by unlabeled hIL-13 on T-98G glioma cells, LIGAND/Scatchard analysis
[10] = target: IL-13 receptor (IL-13R) on human tumor cells (human); experiment: displacement of [^125I]-IL-13 from HL-RCC cells
[11] = target: IL-13 receptor (IL-13R) on human tumor cells (human); experiment: ^125I-IL-13 displacement by unlabeled IL-13 on PM-RCC cells, LIGAND/Scatchard analysis
[12] = target: IL-13 receptor (IL-13R) on human tumor cells (human); experiment: ^125I-IL-13 displacement by unlabeled IL-13 on WS-RCC cells, LIGAND/Scatchard analysis
[13] = target: IL-13 receptor (IL-13R) on human tumor cells (human); experiment: ^125I-hIL-13 displacement by unlabeled hIL-13 on U-251 MG glioma cells, LIGAND/Scatchard analysis

IL-13 receptor (IL-13R) on human tumor cells (human), sequence (Q14627 whole entry): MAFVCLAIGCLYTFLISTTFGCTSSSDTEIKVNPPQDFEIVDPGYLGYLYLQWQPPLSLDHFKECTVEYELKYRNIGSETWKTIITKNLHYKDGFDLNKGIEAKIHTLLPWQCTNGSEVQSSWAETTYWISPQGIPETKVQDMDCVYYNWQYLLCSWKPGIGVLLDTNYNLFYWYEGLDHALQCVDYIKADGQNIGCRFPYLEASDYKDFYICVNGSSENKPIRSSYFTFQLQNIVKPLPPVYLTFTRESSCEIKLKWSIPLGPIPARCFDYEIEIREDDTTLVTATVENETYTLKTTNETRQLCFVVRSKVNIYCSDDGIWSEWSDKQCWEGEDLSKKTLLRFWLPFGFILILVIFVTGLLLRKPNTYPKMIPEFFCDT

Substance | IC50, cytotoxicity on several glioma cell lines [1] | % displacement of total binding [2] | cpm specifically bound [3] | pKd [4] | pKd [5] | pKd [6] | pKd [7] | pKd [8] | pKd [9] | pIC50 [10] | pKd [11] | pKd [12] | pKd [13]
hIL-13-PE4E (from UniProt P35225 33-146; P11439 26-638) | < 0.1 ng/mL | – | – | – | – | – | – | – | – | – | – | – | –
recombinant human interleukin 13 (IL-13) (from UniProt P35225 33-146) (ligand) | – | 85% | 182000 cpm | 8.85 | 8.51 | 8.74 | 8.80 | 9.89 | 9.00 | 7.70 | 9.40 | 9.61 | 8.68
